Laboratory results as given in patent US20260242735A1 (UNIVERSIT T BASEL, published 2026).

Columns and labels:
Assay in all cases: alanine scan, flow cytometry;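 note: HEK293-T cells transiently expressing single-residue alanine mutants of CD33 (alanine swapped to serine), antibody binding read by fluorescence in duplicate, background-subtracted, expressed relative to wild-type CD33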
human CD33 Y49A = human CD33 Y49A (human, UniProt P20138 18-364)
human CD33 D79A = human CD33 D79A (human, UniProt P20138 18-364)
human CD33 V37A = human CD33 V37A (human, UniProt P20138 18-364)
Chain of human CD33 V37A (P20138 18-364 V37A limits assumed): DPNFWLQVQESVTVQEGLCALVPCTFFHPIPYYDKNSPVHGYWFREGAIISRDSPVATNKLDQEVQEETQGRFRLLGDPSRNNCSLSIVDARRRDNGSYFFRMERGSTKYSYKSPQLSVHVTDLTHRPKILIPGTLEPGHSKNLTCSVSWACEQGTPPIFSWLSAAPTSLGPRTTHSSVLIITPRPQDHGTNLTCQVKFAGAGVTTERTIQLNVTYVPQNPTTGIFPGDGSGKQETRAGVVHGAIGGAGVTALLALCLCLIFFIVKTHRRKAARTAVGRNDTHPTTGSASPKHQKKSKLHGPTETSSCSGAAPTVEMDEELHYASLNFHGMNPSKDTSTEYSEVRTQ

human CD33 P19A = human CD33 P19A (human, UniProt P20138 18-364)
human CD33 S54A = human CD33 S54A (human, UniProt P20138 18-364)
human CD33 C36A = human CD33 C36A (human, UniProt P20138 18-364)
Chain of human CD33 C36A (P20138 18-364 C36A limits assumed): as the sequence (P20138 18-364 V37A limits assumed) above, with C19A, A20V counted along it

human CD33 P48A = human CD33 P48A (human, UniProt P20138 18-364)
human CD33 V31A = human CD33 V31A (human, UniProt P20138 18-364)
human CD33 D51A = human CD33 D51A (human, UniProt P20138 18-364)
human CD33 E85A = human CD33 E85A (human, UniProt P20138 18-364)
human CD33 K77A = human CD33 K77A (human, UniProt P20138 18-364)
human CD33 Q26A = human CD33 Q26A (human, UniProt P20138 18-364)
human CD33 I66A = human CD33 I66A (human, UniProt P20138 18-364)
human CD33 V39A = human CD33 V39A (human, UniProt P20138 18-364)
Chain of human CD33 V39A (P20138 18-364 V39A limits assumed): as the sequence (P20138 18-364 V37A limits assumed) above, with A20V, V22A counted along it

human CD33 V25A = human CD33 V25A (human, UniProt P20138 18-364)
Chain of human CD33 V25A (P20138 18-364 V25A limits assumed): as the sequence (P20138 18-364 V37A limits assumed) above, with V8A, A20V counted along it

human CD33 L38A = human CD33 L38A (human, UniProt P20138 18-364)
Chain of human CD33 L38A (P20138 18-364 L38A limits assumed): as the sequence (P20138 18-364 V37A limits assumed) above, with A20V, L21A counted along it

human CD33 I67A = human CD33 I67A (human, UniProt P20138 18-364)
human CD33 W22A = human CD33 W22A (human, UniProt P20138 18-364)
human CD33 R89A = human CD33 R89A (human, UniProt P20138 18-364)
human CD33 G34A = human CD33 G34A (human, UniProt P20138 18-364)
Chain of human CD33 G34A (P20138 18-364 G34A limits assumed): as the sequence (P20138 18-364 V37A limits assumed) above, with G17A, A20V counted along it

human CD33 Y50A = human CD33 Y50A (human, UniProt P20138 18-364)
human CD33 E81A = human CD33 E81A (human, UniProt P20138 18-364)
human CD33 V29A = human CD33 V29A (human, UniProt P20138 18-364)
Chain of human CD33 V29A (P20138 18-364 V29A limits assumed): as the sequence (P20138 18-364 V37A limits assumed) above, with V12A, A20V counted along it

human CD33 T75A = human CD33 T75A (human, UniProt P20138 18-364)
Chain of human CD33 T75A (P20138 18-364 T75A limits assumed): as the sequence (P20138 18-364 V37A limits assumed) above, with A20V, T58A counted along it

human CD33 S68A = human CD33 S68A (human, UniProt P20138 18-364)
human CD33 E27A = human CD33 E27A (human, UniProt P20138 18-364)
human CD33 Q32A = human CD33 Q32A (human, UniProt P20138 18-364)
human CD33 L92A = human CD33 L92A (human, UniProt P20138 18-364)
human CD33 T86A = human CD33 T86A (human, UniProt P20138 18-364)
Chain of human CD33 T86A (P20138 18-364 T86A limits assumed): as the sequence (P20138 18-364 V37A limits assumed) above, with A20V, T69A counted along it

human CD33 N20A = human CD33 N20A (human, UniProt P20138 18-364)
human CD33 S71A = human CD33 S71A (human, UniProt P20138 18-364)
Chain of human CD33 S71A (P20138 18-364 S71A limits assumed): as the sequence (P20138 18-364 V37A limits assumed) above, with A20V, S54A counted along it

human CD33 Q83A = human CD33 Q83A (human, UniProt P20138 18-364)
Chain of human CD33 Q83A (P20138 18-364 Q83A limits assumed): as the sequence (P20138 18-364 V37A limits assumed) above, with A20V, Q66A counted along it

human CD33 R69A = human CD33 R69A (human, UniProt P20138 18-364)
human CD33 R91A = human CD33 R91A (human, UniProt P20138 18-364)
Chain of human CD33 R91A (P20138 18-364 R91A limits assumed): as the sequence (P20138 18-364 V37A limits assumed) above, with A20V, R74A counted along it

human CD33 W60A = human CD33 W60A (human, UniProt P20138 18-364)
Chain of human CD33 W60A (P20138 18-364 W60A limits assumed): as the sequence (P20138 18-364 V37A limits assumed) above, with A20V, W43A counted along it

human CD33 V56A = human CD33 V56A (human, UniProt P20138 18-364)
human CD33 Q87A = human CD33 Q87A (human, UniProt P20138 18-364)
human CD33 D18A = human CD33 D18A (human, UniProt P20138 19-364)
human CD33 P46A = human CD33 P46A (human, UniProt P20138 18-364)
Chain of human CD33 P46A (P20138 18-364 P46A limits assumed): as the sequence (P20138 18-364 V37A limits assumed) above, with A20V, P29A counted along it

human CD33 F90A = human CD33 F90A (human, UniProt P20138 18-364)
human CD33 E84A = human CD33 E84A (human, UniProt P20138 18-364)
human CD33 I47A = human CD33 I47A (human, UniProt P20138 18-364)

B1: Refmab #1 (antibody, V domains shown)
VH: EVQLVQSGAEVKKPGSSVKVSCKASGYTITDSNIHWVRQAPGQSLEWIGYIYPYNGGTDYNQKFKNRATLTVDNPTNTAYMELSSLRSEDTAFYYCVNGNPWLAYWGQGTLVTVSS
VL: DIQLTQSPSTLSASVGDRVTITCRASESLDNYGIRFLTWFQQKPGKAPKLLMYAASNQGSGVPSRFSGSGSGTEFTLTISSLQPDDFATYYCQQTKEVPWSFGQGTKVEVK
notes: Full-length format is human IgG1 (Absolute Antibody Ab00283-10.0); The alanine scan used IgG or Fab; also called hP67.6
Human CD33 Y49A
  Mean % WT Binding: 106 % WT
Human CD33 D79A
  Mean % WT Binding: 88.1 % WT
Human CD33 V37A
  Mean % WT Binding: 78.7 % WT
Human CD33 P19A
  Mean % WT Binding: 80.8 % WT
Human CD33 S54A
  Mean % WT Binding: 87.6 % WT
Human CD33 C36A
  Mean % WT Binding: 72.6 % WT
Human CD33 P48A
  Mean % WT Binding: 86.2 % WT
Human CD33 V31A
  Mean % WT Binding: 87 % WT
Human CD33 D51A
  Mean % WT Binding: 82.4 % WT
Human CD33 E85A
  Mean % WT Binding: 88.9 % WT
Human CD33 K77A
  Mean % WT Binding: 95.6 % WT
Human CD33 Q26A
  Mean % WT Binding: 81.4 % WT
Human CD33 I66A
  Mean % WT Binding: 96.6 % WT
Human CD33 V39A
  Mean % WT Binding: 80 % WT
Human CD33 V25A
  Mean % WT Binding: 90.7 % WT
Human CD33 L38A
  Mean % WT Binding: 94.8 % WT
Human CD33 I67A
  Mean % WT Binding: 98.1 % WT
Human CD33 W22A
  Mean % WT Binding: 79.4 % WT
Human CD33 R89A
  Mean % WT Binding: 77.6 % WT
Human CD33 G34A
  Mean % WT Binding: 99.5 % WT
Human CD33 Y50A
  Mean % WT Binding: 86 % WT
Human CD33 E81A
  Mean % WT Binding: 83 % WT
Human CD33 V29A
  Mean % WT Binding: 102 % WT
Human CD33 T75A
  Mean % WT Binding: 101 % WT
Human CD33 S68A
  Mean % WT Binding: 91.3 % WT
Human CD33 E27A
  Mean % WT Binding: 82.5 % WT
Human CD33 Q32A
  Mean % WT Binding: 87 % WT
Human CD33 L92A
  Mean % WT Binding: 75.2 % WT
Human CD33 T86A
  Mean % WT Binding: 79.1 % WT
Human CD33 N20A
  Mean % WT Binding: 1.2 % WT
Human CD33 S71A
  Mean % WT Binding: 108 % WT
Human CD33 Q83A
  Mean % WT Binding: 87.1 % WT
Human CD33 R69A
  Mean % WT Binding: 94.2 % WT
Human CD33 R91A
  Mean % WT Binding: 82 % WT
Human CD33 W60A
  Mean % WT Binding: 0.7 % WT
Human CD33 V56A
  Mean % WT Binding: 94.3 % WT
Human CD33 Q87A
  Mean % WT Binding: 91 % WT
Human CD33 D18A
  Mean % WT Binding: 78.6 % WT
Human CD33 P46A
  Mean % WT Binding: 64.8 % WT
Human CD33 F90A
  Mean % WT Binding: 73.9 % WT
Human CD33 E84A
  Mean % WT Binding: 92.2 % WT
Human CD33 I47A
  Mean % WT Binding: 84.2 % WT

B2: Refmab #2 (antibody, V domains shown)
VH: QVQLVQSGAEVKKPGSSVKVSCKASGGTFSDYAISWVRQAPGQGLEWMGRIIPILGVADYAQKFQGRVTITADKSTRTAYMELSSLRSEDTAVYYCARNWADAFDIWGQGTMVTVSS
VL: DIQLTQSPSSLSASVGDRVTITCRASQGISSVLAWYQQKPGKAPKLLIYDASSLESGVPSRFSGSGSGTDFTLTISSLQPEDFATYYCQQFDSSITFGQGTKLEIK
notes: Full-length format is human IgG1 Fc silent (PG-LALA); The alanine scan used IgG or Fab
Human CD33 Y49A
  Mean % WT Binding: 44.2 % WT
Human CD33 D79A
  Mean % WT Binding: 102 % WT
Human CD33 V37A
  Mean % WT Binding: 118 % WT
Human CD33 P19A
  Mean % WT Binding: 111 % WT
Human CD33 S54A
  Mean % WT Binding: 112 % WT
Human CD33 C36A
  Mean % WT Binding: 117 % WT
Human CD33 P48A
  Mean % WT Binding: 109 % WT
Human CD33 V31A
  Mean % WT Binding: 106 % WT
Human CD33 D51A
  Mean % WT Binding: 59 % WT
Human CD33 E85A
  Mean % WT Binding: 114 % WT
Human CD33 K77A
  Mean % WT Binding: 123 % WT
Human CD33 Q26A
  Mean % WT Binding: 111 % WT
Human CD33 I66A
  Mean % WT Binding: 118 % WT
Human CD33 V39A
  Mean % WT Binding: 111 % WT
Human CD33 V25A
  Mean % WT Binding: 87.1 % WT
Human CD33 L38A
  Mean % WT Binding: 112 % WT
Human CD33 I67A
  Mean % WT Binding: 122 % WT
Human CD33 W22A
  Mean % WT Binding: 110 % WT
Human CD33 R89A
  Mean % WT Binding: 98.7 % WT
Human CD33 G34A
  Mean % WT Binding: 105 % WT
Human CD33 Y50A
  Mean % WT Binding: 141 % WT
Human CD33 E81A
  Mean % WT Binding: 107 % WT
Human CD33 V29A
  Mean % WT Binding: 100 % WT
Human CD33 T75A
  Mean % WT Binding: 114 % WT
Human CD33 S68A
  Mean % WT Binding: 112 % WT
Human CD33 E27A
  Mean % WT Binding: 111 % WT
Human CD33 Q32A
  Mean % WT Binding: 108 % WT
Human CD33 L92A
  Mean % WT Binding: 106 % WT
Human CD33 T86A
  Mean % WT Binding: 113 % WT
Human CD33 N20A
  Mean % WT Binding: 121 % WT
Human CD33 S71A
  Mean % WT Binding: 112 % WT
Human CD33 Q83A
  Mean % WT Binding: 107 % WT
Human CD33 R69A
  Mean % WT Binding: 138 % WT
Human CD33 R91A
  Mean % WT Binding: 119 % WT
Human CD33 W60A
  Mean % WT Binding: 2.8 % WT
Human CD33 V56A
  Mean % WT Binding: 80.7 % WT
Human CD33 Q87A
  Mean % WT Binding: 118 % WT
Human CD33 D18A
  Mean % WT Binding: 119 % WT
Human CD33 P46A
  Mean % WT Binding: 104 % WT
Human CD33 F90A
  Mean % WT Binding: 104 % WT
Human CD33 E84A
  Mean % WT Binding: 114 % WT
Human CD33 I47A
  Mean % WT Binding: 2.1 % WT
